Positions count from the first letter of the chain named. “Also recorded” adds a separate entry of the source. A value given as a limit tells only on which side of the number the result lay.

Assay [1] concerns the target T1, recombinant human MK (huMK) (Homo sapiens, UniProt P21741).
T1 sequence (P21741 21-143): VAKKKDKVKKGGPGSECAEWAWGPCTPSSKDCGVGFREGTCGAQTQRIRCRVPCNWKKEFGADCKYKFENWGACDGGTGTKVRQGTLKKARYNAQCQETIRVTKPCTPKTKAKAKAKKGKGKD
The assay can be described thus: ELISA binding of humanised anti-MK antibodies to huMK. The conditions noted are these: for EC50: ELISA, plates coated with 2 ug/mL huMK, read-out: Binding affinity for huMK, ELISA EC50; for binding affinity for huMK compared with murine IP14 precursor antibody: comparison in words. The protocol: (§1) The binding specificity and affinity of the humanised anti-MK antibodies to recombinant human MK (huMK) and murine MK (muMK) was assessed by ELISA. ELISA plates (Nunc Immuno MaxiSorp 96 well flat-bottom were coated with 100 uL of 2 ug/mL of either huMK or muMK in 2% BSA/PBS (overnight at room temperature). After washing, blocking (1 h at 37° C.), and washing again, the humanised anti-MK and chimeric antibodies described in Example 1 were analysed for binding to huMK or muMK at concentrations ranging between 3 μg/ml and 0.00004 μg/ml in 2% BSA/PBS (1 h at 37° C.). After washing, the binding of antibody was detected with goat anti-mouse IgG (Fab specific)-HRP conjugate (Sigma, Cat. No. A9917) and SigmaFast OPD substrate (Sigma, Cat. No. P9187). The reaction was stopped with 3 M HCl, absorbance read at 490 nm on a Dynex Technologies MRX TC II plate reader and the binding curves plotted. Binding affinity data for the humanised anti-MK antibodies to huMK and muMK are presented in Table 6 and Table 7 respectively, and in FIG. 3.
(§2) KD values for hIP14-H5L8, hIP14-H6L3 and hIP14-H6L8 was then compared with the KD values obtained for the corresponding murine IP14 precursor antibody and the chimeric antibody using the methods described in Example 2. […] Based on this finding, these candidate antibodies were produced to 100 mg scale to enable further testing in functional assays to determine biological function.
(An ELISA detects its analyte on a solid surface through an enzyme-linked reagent.)

The next assay concerns the target T2, murine MK (muMK) (Mus musculus, UniProt P12025).
T2 sequence (P12025 23-140): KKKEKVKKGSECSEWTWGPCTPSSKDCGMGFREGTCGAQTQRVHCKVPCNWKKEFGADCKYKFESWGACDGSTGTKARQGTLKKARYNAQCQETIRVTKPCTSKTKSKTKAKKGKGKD
The assay can be described thus: ELISA binding of humanised anti-MK antibodies to muMK. The conditions noted are these: for EC50: ELISA, plates coated with 2 ug/mL muMK, read-out: Binding affinity for muMK, ELISA EC50; for binding affinity for muMK compared with murine IP14 precursor antibody and chimeric antibody: comparison in words. The protocol: as §1, §2

The target of the next assay is T3, human midkine protein (Homo sapiens, UniProt P21741).
T3 construct: human MK cDNAs comprising the MK coding region flanked by EcoRI restriction sites; made in house; host or cells: Pichia pastoris GS115 (clone T3L-50-4P), secreted into culture supernatant
T3 sequence (P21741 21-143): T1 sequence (P21741 21-143)
The assay can be described thus: UMR106 cell migration inhibition assay (modified Boyden chamber). The conditions noted are these: comparison in words. It counts as cell-based, rat. The protocol: Cell migration assays were performed for each of the preferred candidate humanised IP14 antibodies and the murine IP14 parent antibody to determine the ability of these antibodies to inhibit migration of UMR106 cells to midkine.
The UMR-106 rat osteosarcoma cell line was originally obtained from the American Type Culture Collection, PO Box 1549, Manassas, Va., USA as a frozen stock (catalog no. CRL-1661; batch no. 58494148).
The cells were maintained in: DMEM+Glutamax (DMEM, catalog no. 10569-010 500 mL, lot. no. 778325, Invitrogen/Gibco) supplemented with the following items: Penicillin (10,000 U/mL stock concentration)—Streptomycin (10,000 μg/mL stock concentration) (catalog no. 15140-122 100 mL, lot no. 730849, Invitrogen/Gibco) at a rate of 1 mL/200 mL of DMEM 10% fetal bovine serum (FBS, catalog no. 100099-141, lot no. 6955347Y, Invitrogen/Gibco). The DEM+Glutamax media containing 50 U/mL penicillin, 50 μg/mL streptomycin and 10% FBS is identified as Complete media in this report. The 10% FBS was replaced by 0.3% (w/v) bovine serum albumin (BSA) for the cell migration assays. The BSA was supplied by Sigma-Aldrich, catalog no. A-3192, lot no. 31K1264 and was formulated as a 15% (w/v) stock solution in D-PBS which was sterilized by passage through a 0.22 micron filter and stored at −20° C. prior to use. The cell cultures were maintained in T75 tissue culture-treated flasks in a humidified incubator at approximately 37° C. and 5% carbon dioxide. Cells were sub-cultured twice weekly at a sub-culture ratio ranging from approximately 1:8 to 1:20. Cells were dissociated from the flask by rinsing once with Dulbecco's phosphate buffered saline (DPBS, catalog no. 14190, lot no. 783715, Invitrogen/Gibco) and then incubated with 0.25% Trypsin-EDTA solution (Invitrogen/Gibco) at 37° C. for 2-5 minutes. The cells were then removed by addition of approximately 10 mL of Complete media. The experiments were completed using UMR-106 cells at ˜50 to 75% confluency on the day prior to assay. These cultures were washed once with DMEM and cultured overnight in DMEM containing 0.5% FBS. […]

B1: IP14-H4L4: humanised IP14 antibody: VH SEQ ID NO: 5, VL SEQ ID NO: 13 (antibody, V domains shown)
VH: QVQLVQSGAEVKKPGASVKVSCKASGYTFTSYYMHWVRQAPGQGLEWMGIIHPSGGSTSYAQKFQGRVTMTRDTSTSTVYMELSSLRSEDTAVYYCARWSAKRGDFWGQGTLVTVSS
VL: EIVLTQSPDFQSVTPKEKVNITCRASESISNNLHWYQQKPHQSPKLLIYYASQSISGVPSRFSGSGSGTDFNLTINSVEAEDAATYYCQQSNSWPLTFGGGTKLEIKR
modifications: Variable region heavy chain humanised variant 4 (VH4); Variable region light chain humanised variant 4 (VL4)
What is called EC50 is the concentration that produces a half-maximal response. Turning to B1, the EC50 (in assay [1]; with murine MK (muMK)) was over 10 nM throughout.

B2: IP14-H4L6: humanised IP14 antibody: VH SEQ ID NO: 5, VL SEQ ID NO: 15 (antibody, V domains shown)
VH: B1 VH
VL: EIVLTQSPSTLSASVGDRVNITCRASESISNNLHWYQQKPHKAPKLLIYYASQSISGVPSRFSGSGSGTEFNLTISSVQPDDFATYYCQQSNSWPLTFGQGTKVEIKR
modifications: Variable region heavy chain humanised variant 4 (VH4); Variable region light chain humanised variant 6 (VL6)
As for B2, the EC50 (in assay [1]; with murine MK (muMK)) was over 10 nM in each case.

B3: IP14-H4L5: humanised IP14 antibody: VH SEQ ID NO: 5, VL SEQ ID NO: 14 (antibody, V domains shown)
VH: B1 VH
VL: EIVLTQSPATLSLSPGERATLSCRASQGVSSNLAWYQQKPGQAPRLLIYDASNRATGIPARFSGSGPGTDFTLTISSLEPEDFAVYYCQQSNSWPLTFGQGTKVEIKR
modifications: Variable region heavy chain humanised variant 4 (VH4); Variable region light chain humanised variant 5 (VL5)
Regarding B3, the EC50 (in assay [1]; with murine MK (muMK)) was over 10 nM in each case.

B4: IP14-H5L8: humanised IP14 antibody: VH SEQ ID NO: 6, VL SEQ ID NO: 17 (antibody, V domains shown)
VH: QVQLVQSGGGLVQPGGSLRLSCAASGQSFSSYWMNWVRQAPGQGLEWIGMIHPSDSETILNQKFKDKATLTVDISKNTAYLQMNSLRAEDTAVYYCSSWSAKRGDFWGQGTLVTVSS
VL: DIVLTQSPATLSLSPGERATLSCRASESISNNLHWYQQKPHQAPRLLIYYASQSISGVPARFSGSGSGTDFTLTISSVEPEDFAVYYCQQSNSWPLTFGQGTKVEIKR
modifications: Variable region heavy chain humanised variant 5 (VH5); Variable region light chain humanised variant 8 (VL8)
Consider B4, for which, in assay [1], the “binding affinity for huMK compared with murine IP14 precursor antibody” value is “better binding affinity”. Moreover, the “binding affinity for muMK compared with murine IP14 precursor antibody and chimeric antibody” value in the assay with murine MK (muMK) was “better binding affinity”. In addition, in the assay with human midkine protein, the “inhibition of UMR-106 cell migration compared with murine IP14 precursor antibody” value is given as “more effective; also recorded: greater efficacy”.

B5: IP14-H4L8: humanised IP14 antibody: VH SEQ ID NO: 5, VL SEQ ID NO: 17 (antibody, V domains shown)
VH: B1 VH
VL: B4 VL
modifications: Variable region heavy chain humanised variant 4 (VH4); Variable region light chain humanised variant 8 (VL8)
As for B5, the EC50 (in assay [1]; with murine MK (muMK)) was over 10 nM throughout.

B6: IP14-H6L3: humanised IP14 antibody: VH SEQ ID NO: 7, VL SEQ ID NO: 12 (antibody, V domains shown)
VH: B4 VH with Q13K, G16H, Q43K, T71S, S75A, T78S
VL: B4 VL with H41G, V58I, S67P, V78L, Q100G, V104L
modifications: Variable region heavy chain humanised variant 6 (VH6); Variable region light chain humanised variant 3 (VL3)
As to B6, the “binding affinity for huMK compared with murine IP14 precursor antibody” value in assay [1] is “better binding affinity”. In the assay with murine MK (muMK), the “binding affinity for muMK compared with murine IP14 precursor antibody and chimeric antibody” value is “better binding affinity”. Further, in the assay with human midkine protein, the “inhibition of UMR-106 cell migration compared with murine IP14 precursor antibody” value was “more effective; also recorded: greater efficacy”.

B7: IP14-H4L7: humanised IP14 antibody: VH SEQ ID NO: 5, VL SEQ ID NO: 16 (antibody, V domains shown)
VH: B1 VH
VL: B4 VL with T20N, T72N
modifications: Variable region heavy chain humanised variant 4 (VH4); Variable region light chain humanised variant 7 (VL7)
For the molecule B7, the EC50 (in assay [1]; with murine MK (muMK)) was over 10 nM throughout.

B8: IP14-H6L8: humanised IP14 antibody: VH SEQ ID NO: 7, VL SEQ ID NO: 17 (antibody, V domains shown)
VH: B4 VH with Q13K, G16H, Q43K, T71S, S75A, T78S
VL: B4 VL
modifications: Variable region heavy chain humanised variant 6 (VH6); Variable region light chain humanised variant 8 (VL8)
On to B8, for which, in assay [1], the “binding affinity for huMK compared with murine IP14 precursor antibody” value is listed as “better binding affinity”. In the assay with murine MK (muMK), the “binding affinity for muMK compared with murine IP14 precursor antibody and chimeric antibody” value was “better binding affinity”. The “inhibition of UMR-106 cell migration compared with murine IP14 precursor antibody” value with human midkine protein is reported as “more effective; also recorded: greater efficacy”.

Values taken from US10590192B2, “Midkine antibody” (Cellmid Limited, priority 2014, dated 2020).
